Data: article PMC7124958
pKd: −log10 of the molar value. Each block holds one substance with its values, some of them ahead of it.

Experiments:
Assay in all cases: MST
[1] = target: R663H human β-cardiac 25-hep HMM (UniProt P12883)
[2] = target: WT human β-cardiac 25-hep HMM (UniProt P12883)
[3] = target: C0-C7 fragment of human cardiac myosin binding protein-C (MyBP-C) (human)
[4] = target: R663H human β-cardiac short S1 (sS1) (human) (UniProt P12883)
[5] = target: WT human β-cardiac short S1 (sS1) (human) (UniProt P12883)

- pKd [1]: 5.96
- pKd [2]: 5.82
Substance: C0-C7 fragment of human cardiac myosin binding protein-C (MyBP-C) (domain or fragment)

- pKd [3]: 5.96
Substance: WT human β-cardiac 25-hep HMM (from UniProt P12883 1-1016; P08590 1-195) (complex)

- pKd [4]: 4.24
- pKd [5]: 4.21
Substance: proximal S2 of human β-cardiac myosin (from UniProt P12883 1-1935) (domain or fragment)
